Patent US20250304650A1
Positions count from the first letter of the chain named. In names and notes the source's numbering stands.

B1: anti-NGF feline IgG1a, Fc variant S428L (antibody, part only; not given: Anti-NGF variable domains, not shown: another chain or arm of the molecule; small tags and cut ends)
Fc: PPEMLGGPSIFIFPPKPKDTLSISRTPEVTCLVVDLGPDDSDVQITWFVDNTQVYTAKTSPREEQFNSTYRVVSVLPILHQDWLKGKEFKCKVNSKSLPSPIERTISKAKGQPHEPQVYVLPPAQEELSRNKVSVTCLIKSFHPPDIAVEWEITGQPEPENNYRTTPPQLDSDGTYFVYSKLSVDRSHWQRGNTYTCSVLHEALHSHHTQKSLTQSPGK
B2: anti-NGF feline IgG1a, Fc variant Q347L (antibody, part only; not given: Anti-NGF variable domains, not shown: another chain or arm of the molecule; small tags and cut ends)
Fc: B1 Fc with Q117L, L200S
B3: anti-NGF feline IgG1a, Fc variant E293H (antibody, part only; not given: anti-NGF variable domains, light chain, not shown: another chain or arm of the molecule; small tags and cut ends)
Fc: B1 Fc with E63H, L200S
B4: anti-NGF feline IgG1a, Fc variant S290V, R334D (antibody, part only; not given: anti-NGF variable domains, light chain, not shown: another chain or arm of the molecule; small tags and cut ends)
Fc: B1 Fc with S60V, R104D, L200S
B5: anti-NGF feline IgG1a, Fc variant Q311V (antibody, part only; not given: anti-NGF variable domains, light chain, not shown: another chain or arm of the molecule; small tags and cut ends)
Fc: B1 Fc with Q81V, L200S
B6: anti-NGF feline IgG1a, Fc variant S254K (antibody, part only; not given: Anti-NGF variable domains, not shown: another chain or arm of the molecule; small tags and cut ends)
Fc: B1 Fc with S24K, L200S
B7: anti-NGF feline IgG1a, Fc variant Q311L (antibody, part only; not given: anti-NGF variable domains, light chain, not shown: another chain or arm of the molecule; small tags and cut ends)
Fc: B1 Fc with Q81L, L200S
B8: anti-NGF feline IgG1a, Fc variant L309V (antibody, part only; not given: anti-NGF variable domains, light chain, not shown: another chain or arm of the molecule; small tags and cut ends)
Fc: B1 Fc with L79V, L200S
B9: anti-NGF feline IgG1a, Fc variant K326D (antibody, part only; not given: anti-NGF variable domains, not shown: another chain or arm of the molecule; small tags and cut ends)
Fc: B1 Fc with K96D, L200S
B10: anti-NGF feline IgG1a, Fc variant T286E (antibody, part only; not given: anti-NGF variable domains, light chain, not shown: another chain or arm of the molecule; small tags and cut ends)
Fc: B1 Fc with T56E, L200S
B11: anti-NGF feline IgG1a, Fc variant R392E (antibody, part only; not given: anti-NGF variable domains, light chain, not shown: another chain or arm of the molecule; small tags and cut ends)
Fc: B1 Fc with R164E, L200S
B12: anti-NGF feline IgG1a, Fc variant T286D (antibody, part only; not given: anti-NGF variable domains, not shown: another chain or arm of the molecule; small tags and cut ends)
Fc: B1 Fc with T56D, L200S
B13: anti-NGF feline IgG1a, Fc variant S428L, I383L (antibody, part only; not given: anti-NGF variable domains, light chain, not shown: another chain or arm of the molecule; small tags and cut ends)
Fc: B1 Fc with I153L
B14: anti-NGF feline IgG1a, Fc variant S428L, Q311K (antibody, part only; not given: anti-NGF variable domains, light chain, not shown: another chain or arm of the molecule; small tags and cut ends)
Fc: B1 Fc with Q81K
B15: anti-NGF feline IgG1a, Fc variant R334D, S428R (antibody, part only; not given: anti-NGF variable domains, light chain, not shown: another chain or arm of the molecule; small tags and cut ends)
Fc: B1 Fc with R104D, L200R
B16: anti-NGF feline IgG1a, Fc variant S428L, E380D, S434R (antibody, part only; not given: Anti-NGF variable domains, not shown: another chain or arm of the molecule; small tags and cut ends)
Fc: B1 Fc with E150D, S206R
B17: anti-NGF feline IgG1a, Fc variant T260E, L309E, Q355L (antibody, part only; not given: anti-NGF variable domains, not shown: another chain or arm of the molecule; small tags and cut ends)
Fc: B1 Fc with T30E, L79E, Q125L, L200S
B18: anti-NGF feline IgG1a, Fc variant L309Y (antibody, part only; not given: anti-NGF variable domains, light chain, not shown: another chain or arm of the molecule; small tags and cut ends)
Fc: B1 Fc with L79Y, L200S
B19: anti-NGF feline IgG1a, Fc variant S428L, E380T, S434R (antibody, part only; not given: anti-NGF variable domains, not shown: another chain or arm of the molecule; small tags and cut ends)
Fc: B1 Fc with E150T, S206R
B20: anti-NGF feline IgG1a, Fc variant N389c-R (antibody, part only; not given: anti-NGF variable domains, not shown: another chain or arm of the molecule; small tags and cut ends)
Fc: B1 Fc with N161R, L200S
B21: anti-NGF feline IgG1a, Fc variant E380T (antibody, part only; not given: anti-NGF variable domains, not shown: another chain or arm of the molecule; small tags and cut ends)
Fc: B1 Fc with E150T, L200S
B22: anti-NGF feline IgG1a, Fc variant S428L, I377V (antibody, part only; not given: anti-NGF variable domains, not shown: another chain or arm of the molecule; small tags and cut ends)
Fc: B1 Fc with I147V
B23: anti-NGF feline IgG1a, Fc variant L309E (antibody, part only; not given: anti-NGF variable domains, light chain, not shown: another chain or arm of the molecule; small tags and cut ends)
Fc: B1 Fc with L79E, L200S
B24: anti-NGF feline IgG1a, Fc variant S428L, T286E (antibody, part only; not given: anti-NGF variable domains, not shown: another chain or arm of the molecule; small tags and cut ends)
Fc: B1 Fc with T56E
B25: anti-NGF feline IgG1a, Fc variant I377Y (antibody, part only; not given: anti-NGF variable domains, not shown: another chain or arm of the molecule; small tags and cut ends)
Fc: B1 Fc with I147Y, L200S
B26: anti-NGF feline IgG1a, Fc variant R334D (antibody, part only; not given: anti-NGF variable domains, light chain, not shown: another chain or arm of the molecule; small tags and cut ends)
Fc: B1 Fc with R104D, L200S
B27: anti-NGF feline IgG1a, Fc variant S252R, L262Q (antibody, part only; not given: anti-NGF variable domains, light chain, not shown: another chain or arm of the molecule; small tags and cut ends)
Fc: B1 Fc with S22R, L32Q, L200S
B28: anti-NGF feline IgG1a, Fc variant S428L, S252R (antibody, part only; not given: anti-NGF variable domains, not shown: another chain or arm of the molecule; small tags and cut ends)
Fc: B1 Fc with S22R
B29: anti-NGF feline IgG1a, Fc variant R301L (antibody, part only; not given: anti-NGF variable domains, not shown: another chain or arm of the molecule; small tags and cut ends)
Fc: B1 Fc with R71L, L200S
B30: anti-NGF feline IgG1a, Fc variant S428L, N389c-R (antibody, part only; not given: anti-NGF variable domains, light chain, not shown: another chain or arm of the molecule; small tags and cut ends)
Fc: B1 Fc with N161R
B31: anti-NGF feline IgG1a, Fc variant S428H (antibody, part only; not given: anti-NGF variable domains, light chain, not shown: another chain or arm of the molecule; small tags and cut ends)
Fc: B1 Fc with L200H
B32: anti-NGF feline IgG1a, Fc variant S252R, A378E (antibody, part only; not given: Anti-NGF variable domains, not shown: another chain or arm of the molecule; small tags and cut ends)
Fc: B1 Fc with S22R, A148E, L200S
B33: anti-NGF feline IgG1a, Fc variant S290Y (antibody, part only; not given: anti-NGF variable domains, not shown: another chain or arm of the molecule; small tags and cut ends)
Fc: B1 Fc with S60Y, L200S
B34: anti-NGF feline IgG1a, Fc variant Q311R (antibody, part only; not given: Anti-NGF variable domains, not shown: another chain or arm of the molecule; small tags and cut ends)
Fc: B1 Fc with Q81R, L200S
B35: anti-NGF feline IgG1a, Fc variant T286E, S428H (antibody, part only; not given: Anti-NGF variable domains, not shown: another chain or arm of the molecule; small tags and cut ends)
Fc: B1 Fc with T56E, L200H
B36: anti-NGF feline IgG1a, Fc variant S428L, Q311V (antibody, part only; not given: Anti-NGF variable domains, not shown: another chain or arm of the molecule; small tags and cut ends)
Fc: B1 Fc with Q81V
B37: anti-NGF feline IgG1a, Fc variant S428L, D312T (antibody, part only; not given: anti-NGF variable domains, not shown: another chain or arm of the molecule; small tags and cut ends)
Fc: B1 Fc with D82T
B38: anti-NGF feline IgG1a, Fc variant S426H (antibody, part only; not given: anti-NGF variable domains, not shown: another chain or arm of the molecule; small tags and cut ends)
Fc: B1 Fc with S198H, L200S
B39: anti-NGF feline IgG1a with wild-type Fc (antibody, part only; not given: anti-NGF variable domains, not shown: another chain or arm of the molecule; small tags and cut ends)
Fc: B1 Fc with L200S
B40: anti-NGF feline IgG1a, Fc variant R301L, E380V, T437L (antibody, part only; not given: anti-NGF variable domains, light chain, not shown: another chain or arm of the molecule; small tags and cut ends)
Fc: B1 Fc with R71L, E150V, L200S, T209L

These binders were tested against feline FcRn (FCN-F82W3, Acrobiosystems) (feline) (assay: SPR Carterra, IgG coupled, pH 6.0).

Binder | Kd [nM] | koff [s⁻¹] | kon [M⁻¹ s⁻¹]
B1 | 16.7 | 0.0241 | 1.45e+06
B2 | 157 | 0.0853 | 544000
B3 | 146 | 0.0665 | 455000
B4 | 10.7 | 0.00997 | 931000
B5 | 80.4 | 0.0505 | 629000
B6 | 107 | 0.0557 | 521000
B7 | 88.2 | 0.0499 | 565000
B8 | 127 | 0.045 | 353000
B9 | 136 | 0.0584 | 428000
B10 | 93.4 | 0.0457 | 489000
B11 | 24.5 | 0.0324 | 1.33e+06
B12 | 97.4 | 0.0389 | 400000
B13 | 9.9 | 0.0162 | 1.63e+06
B14 | 10.5 | 0.0101 | 958000
B15 | 81.7 | 0.0493 | 603000
B16 | 8 | 0.00973 | 1.22e+06
B17 | 9.9 | 0.00977 | 983000
B18 | 196 | 0.118 | 600000
B19 | 3.8 | 0.012 | 3.17e+06
B20 | 188 | 0.0944 | 502000

Binder | Kd [nM] | koff [s⁻¹] | kon [M⁻¹ s⁻¹]
B21 | 116 | 0.062 | 533000
B22 | 10.8 | 0.0183 | 1.69e+06
B23 | 102 | 0.0415 | 406000
B24 | 8.6 | 0.00987 | 1.15e+06
B25 | 61.4 | 0.0514 | 837000
B26 | 133 | 0.0561 | 423000
B27 | 4.9 | 0.00795 | 1.63e+06
B28 | 9 | 0.00873 | 974000
B29 | 95.2 | 0.0435 | 457000
B30 | 9.6 | 0.0109 | 1.14e+06
B31 | 159 | 0.0618 | 389000
B32 | 35.3 | 0.00927 | 262000
B33 | 128 | 0.0849 | 661000
B34 | 59.2 | 0.0116 | 196000
B35 | 47.3 | 0.0283 | 598000
B36 | 11.7 | 0.0107 | 916000
B37 | 11.2 | 0.0113 | 1.01e+06
B38 | 171 | 0.0602 | 352000
B39 | 233 | 0.11 | 472000
B40 | 10.7 | 0.0123 | 1.15e+06
